In data set [1] the test system is Jurkat cells. The experiment in a line: Stability of DNA-conjugated compounds under Jurkat cell treatment (LC/MS). Format: in vitro ADME. Conditions: CsA-DNA 500 nM, SLF-DNA 1000 nM, two independent experiments. Here is the method:
A designed concentration of DNA-conjugated compounds (30 µL in PBS) was incubated with 30 µL of PBS or the cell on ice for 10 min, then 20 min at 37 °C, which is much longer then the viscosity assay time. All the samples were centrifuged at 1000 rpm for 3 min, and then, 30 µL of the supernatant was transferred to MS tube for LC/MS analysis (Supplementary Fig. 4).

Data set [2] has as its system mixture of Jurkat T lymphocyte and the plasma protein fibrinogen. The experiment in a line: Viscosity/shear rate measurement of Jurkat cells in fibrinogen solution. It is filed as cell-based. From the text: Since PPIases can catalyze the dynamic rearrangement of the dense ECM polymer network, we speculated that PPIases could also affect the dynamic interaction between cells and the ECM. Probing the influence of transient prolyl isomerization on cell–ECM interaction is difficult. Studying cell adhesion by the treatment of PPIase inhibitors cannot distinguish extracellular and intracellular factors as well as receptor-mediated signaling due to the long assay time. In order to reflect the highly dynamic process, we measured the viscosity of plasma protein solution with cells. Blood is a shear-thinning non-Newtonian fluid, and its viscosity is largely affected by the interaction between cells and plasma proteins, for example, the coagulation process. We investigated whether the catalyzed isomerization could also influence the interaction between blood cells and plasma proteins, thus affecting the viscosity. We performed viscosity/shear rate measurements using a mixture of Jurkat T lymphocyte and the plasma protein fibrinogen.
The machine used for viscosity is the same as for stiffness measurements. To 30 µL of 4 mg mL^−1 fibrinogen, an equal volume of Jurkat cells (8 × 10^7 mL^−1 in PBS, washed two times with PBS before used; Jurkat cells ocupated around 20% of the volume) was added. The mixture was pipetted up and down six times, kept on ice for 10 min, and then transferred to the rheometer plater (25 °C) for measurements. The plate temperature was raised to 37 °C. The measurement was performed by increasing shear rate ramp liner from 100 to 1000 s^−1. Hundred data points were collected during the measurements. For each condition, two independent experiments were performed (Fig. 1c and Supplementary Fig. 3).

Data set [3] deals with Jurkat cells. The experiment in a line: Cellular uptake of TAMRA compounds by Jurkat cells (flow cytometry). Format: cell-based. As to conditions: 100 nM TAMRA compounds, 1 and 24 hours, compared with Cs9-TAMRA. On the procedure:
A final concentration of 100 nM DNA-conjugated TAMRA compounds and Cs9TAMRA was incubated with Jurkat cells for 1 h or 24 h, the cells were pelleted by centrifugation at 1000 rpm for 5 min, the pellet was washed one time with fluorescent-activated cell sorting (FACS) buffer (PBS with 1% bovine serum albumin), and resuspended in FACS buffer. BD FACS Canto™ II Flow Cytometer was used to analyze the uptake of these compounds by Jurkat cells (Supplementary Fig. 5).
On the technique in general: In flow cytometry, cells or beads pass a laser one at a time.

Data set [4] is described as follows: PPIase activity of His-CypB immobilized on Ni-NTA silica. Format: biochemical. Conditions: 25 pmol immobilized on Ni-NTA silica showed a similar activity to 1 pmol free control. On the procedure: Ten microliters of His-CypB (2.5 µM, 2 µM, 1.5 µM, and 1 µM) was incubated with 10 µL of settled Ni-NTA macroporous silica (Ni-NTA Spin Kit; Qiagen) for 30 min at 0 °C. Subsequently, 80 µL of HEPES buffer was added and incubated for another 10 min with gentle shaking. The silica was precipitated by gravity for 10 min. Eighty microliters were taken from the supernatant and measured along with the silica fraction (the remaining 20 µL) for PPIase activity. The amounts of CypB in the wells were 25, 20, 15, and 10 pmol. Additionally, the activity of 10 µL of 100 nM His-CypB in solution was measured. Three independent experiments were performed. The result is shown in Supplementary Fig. 9.

These results are taken from article PMC6370856, “Peptidyl prolyl cis/trans isomerase activity on the cell surface correlates with extracellular matrix development” (Communications Biology, 2019).

On to “CsA-DNA: CsA-conjugated oligonucleotide, 5-amino modifier C6-CTCTTCCGATCTC (chemistry not fully specified)”, for which the “area of UV absorbance at 260 nm in supernatant” value in data set [1] (Jurkat cell 4 X 107/mL treatment) is 3054±270; in data set [1] (PBS control) it was 2218±11. The “effect on viscosity of cell/fibrinogen mixture” value in data set [2] (Jurkat T lymphocyte and fibrinogen, shear rate 100-1000 s^-1) was “reduced viscosity”. Moreover, the “Viscosity Mean” value in data set [2] (shear rate 102 s-1) came out at 3.276 mPa·s; in data set [2] (shear rate 112 s-1), 2.725 mPa·s; in data set [2] (shear rate 122 s-1) it was 2.3889 mPa·s; in data set [2] (shear rate 132 s-1), 2.173 mPa·s; in data set [2] (shear rate 142 s-1) it was 1.975 mPa·s; in data set [2] (shear rate 152 s-1), 1.931 mPa·s. For the same substance, the “Viscosity Mean” value in data set [2] (shear rate 162 s-1) was 1.858 mPa·s; in data set [2] (shear rate 173 s-1), 1.71 mPa·s; in data set [2] (shear rate 183 s-1), 1.682 mPa·s; in data set [2] (shear rate 193 s-1) it was 1.63 mPa·s; in data set [2] (shear rate 203 s-1), 1.558 mPa·s; in data set [2] (shear rate 253 s-1), 1.438 mPa·s. The “Viscosity Mean” value is 1.4013 mPa·s in data set [2] (shear rate 263 s-1); 1.361 mPa·s in data set [2] (shear rate 284 s-1); 1.331 mPa·s in data set [2] (shear rate 304 s-1); 1.301 mPa·s in data set [2] (shear rate 334 s-1); 1.29 mPa·s in data set [2] (shear rate 344 s-1); 1.29 mPa·s in data set [2] (shear rate 354 s-1). Further, the “Viscosity Mean” value in data set [2] (shear rate 364 s-1) was found to be 1.269 mPa·s; in data set [2] (shear rate 374 s-1), 1.245 mPa·s; in data set [2] (shear rate 384 s-1) it was 1.237 mPa·s; in data set [2] (shear rate 395 s-1), 1.237 mPa·s; in data set [2] (shear rate 415 s-1), 1.212 mPa·s; in data set [2] (shear rate 425 s-1), 1.198 mPa·s. Also, the “Viscosity Mean” value amounted to 1.142 mPa·s in data set [2] (shear rate 475 s-1); 1.138 mPa·s in data set [2] (shear rate 526 s-1); 1.137 mPa·s in data set [2] (shear rate 556 s-1); 1.139 mPa·s in data set [2] (shear rate 576 s-1); 0.9613 mPa·s in data set [2] (shear rate 909 s-1); 1.096 mPa·s in data set [2] (shear rate 919 s-1). Moreover, the “Viscosity Mean” value in data set [2] (shear rate 929 s-1) is 0.9906 mPa·s; in data set [2] (shear rate 939 s-1), 0.9737 mPa·s; in data set [2] (shear rate 980 s-1), 0.896 mPa·s; in data set [2] (shear rate 990 s-1), 0.87 mPa·s; in data set [2] (shear rate 1000 s-1), 0.9112 mPa·s. Moreover, the “cell entry / uptake by Jurkat cells” value in data set [3] is “do not enter into cells”.

In the case of “His-CypB: recombinant His-tagged cyclophilin B, immobilized on Ni-NTA macroporous silica”, the “catalytic activity of immobilized enzyme versus free enzyme in solution” value in data set [4] is on record as “diminished catalytic activity”.
